# Measurements taken from the RNAGym collection of RNA variant scans (doi:10.1073/pnas.2313332121).
# B1: TPR t1 (parent)
# chain: GACCAAUCUGCCCUCAGAGCUCGAGAACAUCUUCGGAUGCAGAGGAGGCAGGCUUCGGUGGCGCGAUAGCGCCAACGUCCUCAACCUCCAAUGCAUCCCACCACAUGAUGAUGCCUGAAGAGCCUUGGUUUUUUG
# Variants of: B1
# Assay: polymerase ribozyme fitness, log enrichment relative to wild type (log ratio); higher = more active; in vitro selection for triplet polymerase activity
# Outline: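 Fitness is a logarithmic measure of how a genotype enriched relative to the wild type, with replicate averages weighted by inverse variance. The logarithm uses base 2, and enrichment came from Illumina sequencing of input and output libraries. Those libraries were PCR-built, transcribed mutants of each subunit of a heterodimeric triplet polymerase ribozyme, passed through one triplicate in vitro selection round that included frozen incubation at −7 °C, gel excision of extended constructs and streptavidin-bead capture. Genotypes were kept only if they had ≥10 input reads and ≥1 read per output.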
row,Variant,polymerase ribozyme fitness (log ratio)
1,C8U A26U C62U G93A,-2.86
2,C8U C70G C97U C124U U131A,-1.27
3,C8G G48U G93U U112A C124A,-0.874
4,U9C U32C U59G A121C G122U,0.733
5,C8U U92A G93A,-4.46
6,U9C G57U C114U G128C U130C,-1.68
7,C8U C56U G61A A95U G120A,-6.04
8,U9A A43C C82G A108G C123G U131A,-5.6
9,C8U U78A G93U C101G C104A C124U,-3.7
10,C8U C64U,0.265
11,C8U C20U U38G C62G G113U,-3.27
12,U9A G44C C80A U96C,-3.87
13,U9G A74U,0.26
14,U9C G69U G71U U92A,-3.04
15,U9A C13A G51U C94G,-4.04
16,U9A G117U,-1.08
17,C8U G23C C34U G61A G93A U109C,-6.59
18,C8U C13U C28G C82G C114G,-4.82
19,C8G G52U G60A U96G,-0.693
20,U9G A46U U55G A103C,-4.6
21,C8U C11U C70U C73U C102A,-3.01
22,U9C G71A,0.0862
23,U9A C31U G44U G52U A111U,-5.37
24,C8U G48A C72U,0.0222

row,Variant,polymerase ribozyme fitness (log ratio)
1,U9A G10U G44U G60A C89G G127C,-2.63
2,C8U C13U A68G U129G,-3.57
3,U9C G19A U32A C88U C123A,-5.37
4,U9C G120C,1.46
5,U9C G47C U132C,-1.22
6,C8G G107U G113A,-3.41
7,U9G C12A U54A G93A,0.0472
8,C8G G71A,0.0703
9,C8G G71U,0.189
10,C8G G71C,-0.095
11,U9A C11G G93U A100G,-5.7
12,U9C G17A A18G G113U,-4.74
13,C8U A50G U78A C85A,-0.938
14,U9A U96G,-0.342
15,U9C G39U G48A C53G A91G,-2.06
16,U9G A95C,-1.41
17,U9A A108U C123G,-4.11
18,U9A G122A,0.926
19,C8U C13A A37U G47A C62U G122A,-1.54
20,C8U U14A G61U C70U C104U C124A G135C,0.783
21,U9A C86A C98U,-0.22
22,U9A G44C C70G,-4.48
23,C8U G39U A66G G113C,-4.22
24,C8G G135U,-0.819

row,Variant,polymerase ribozyme fitness (log ratio)
1,C8U G47C G57A U92C,-4.38
2,U9A C73U,0.98
3,U9A A16U G63C U132A,-0.608
4,U9C G36A C85U C123A,0.00121
5,U9C G39C G128C,-1.84
6,U9A G19C A41U G63C,-3.34
7,U9A C13A G42C A43U A100U,-3.76
8,U9G A24G,-0.443
9,C8U C73G,-0.251
10,U9C G60A,0.405
11,C8U C104U,0.275
12,U9C C72U C98U G120A,0.967
13,C8U C22U A119U,-2.76
14,U9A C40U A46U C56U C115G U131G,-1.77
15,C8U G44C A83U,-0.336
16,C8G G63C,-1.11
17,U9A G52C C94U C101A,-1.78
18,U9A C64U A66G,-3.02
19,U9A U32C G36C,-0.0123
20,C8U C56U C82A C97A G117C,-7.35
21,U9C U112A C114G,0.928
22,U9C G63U C104U,-0.467
23,U9G A27G A37U,-0.779
24,C8G G48U G61U G93U U112A C124A,-0.568

row,Variant,polymerase ribozyme fitness (log ratio)
1,U9A C56A A66U,-0.548
2,U9G C13U C89A G107A C114U,-1.8
3,C8U A29U A37U U116C,-2.24
4,U9A G60A C70A C98U C101G C123G,-6.71
5,C8U A29C U55A C56G C88A U112A U130C,-3.36
6,C8U A26U C49G C79U G93A,-4.36
7,C8U G61U A66U C123A U133G,0.747
8,C8G U126C,-0.307
9,C8U G47C G77C U129G,-3.36
10,U9C C13G,0.844
11,U9A C80U,0.294
12,C8U U92C,-0.788
13,C8U C53G,-0.0198
14,C8U C13A G25U G39A G47U G63C G117C G120C,-7.2
15,C8U C88A A90U,-0.855
16,C8G U87C A105C C124G,0.541
17,C8G G52C C62U C89U,-1.08
18,U9A G63U U96G G128A,-2.96
19,C8U G60U U106A G122A,0.855
20,U9A C13U G19U U78A A91G,-3.32
21,U9C U130G,-0.0168
22,U9C U14C U33G G51A G69U A118G,-5.88
23,U9A G128C,-2.11
24,U9G A37U C40U G45A C72U C104U,-0.789

row,Variant,polymerase ribozyme fitness (log ratio)
1,C8U A16U G77U C123U,0.933
2,U9A C70U U78A,-0.654
3,C8U C56U,0.434
4,C8U C56A,0.00842
5,U9C C11U G47C U96G,-3.05
6,C8U G52U A105G,-3.89
7,U9A C11U G52A,-0.401
8,U9C C56G C62G,-3.04
9,C8U U14A A46U C56U,-1.92
10,U9C G19U U81C U130C,-3.09
11,C8G G71A C73A C94U C104U,-1.01
12,U9C A41C U87C C114U,-0.644
13,U9A C31U A111C G135U,-4.56
14,U9C G60U C62U U78G C80A U112C,-1.95
15,U9G C20A U59A,-3.12
16,C8G G48U G58C G60U U125G,-0.353
17,U9A G61A A75U U96G A121G U129C G135U,0.515
18,U9A G71U C94A C123G,0.355
19,U9C C101G C104U U116C,-2.48
20,C8U U55C C64G U112A,-6.22
21,U9A C13G A37G C82G U116C U125A,-4.1
22,C8G G69U,0.724
23,U9A G17U U78C C82G C86G C124U U125C,-0.551
24,U9G A18U C40U,-0.788

row,Variant,polymerase ribozyme fitness (log ratio)
1,C8G U14C C79U U87A U112A,2.12
2,U9G A108G,-1.95
3,C8U G69U G93C,0.148
4,U9A G36C,0.19
5,C8U A43G G48U C101A,-3.37
6,U9A G10C C79A C101G,-2.55
7,U9C G117A,0.892
8,C8U A26U,-2.13
9,C8G G122A,0.556
10,C8U A50U A75U U130A,-1.78
11,U9A G52U C88U C124A,0.944
12,C8U A46G G48C C72G C80U A105C G122A,-5.9
13,U9A C22U C49A C86A,-5.1
14,C8U U87C C102U U112A G122A,-0.31
15,C8U A50G C72G,-0.53
16,U9C G10A G93A,-0.147
17,C8G U78C A105C,-2.32
18,U9A C31G C73G C85A U109C,-5.57
19,U9C G122A,-0.428
20,U9C A26G A27U U54A A74G C82G,-6.24
21,U9C U92G,-1.58
22,U9C G10A,0.0311
23,U9A C85U,0.475
24,C8U C49A,0.373

row,Variant,polymerase ribozyme fitness (log ratio)
1,U9A G107U G117C,-6.35
2,U9C C31A G44A G47U G69U C88U A118U U133G,-4.68
3,C8U G71A C88U,-0.224
4,U9C U112G,0.223
5,U9G A18C C56G C72A G120A U130A,-2.29
6,U9C U78C A83U A90G A121G,2.5
7,U9A G61A,0.705
8,U9G A29U G39C,-3.86
9,U9A A16U C89U,-0.38
10,C8U G63C C102U,-2.5
11,C8G U116C,-0.0708
12,C8U C40U G52A C79G,-0.696
13,U9C C72A A83U A90G U131C,0.697
14,U9C C49A C85U G120C,1.08
15,C8U G36U G39A G48U C72A U106A,-1.69
16,U9A G69C,-0.589
17,U9A U33G G36U U38G C53G C115G,-7.69
18,U9C G113A,-0.364
19,C8U C13U G35C A46U C115A,-3.54
20,C8U A37G C56U C73G G110U A119U,-3.74
21,U9A C22G G51A C56G C123A,-3.28
22,U9C U78G U81A,-0.22
23,U9C G60A U130A,0.434
